Values belong to the molecule of their own block, whether it stands above or below them.
How the values were obtained:
[1] = molecular target: FGFR (fibroblast growth factor receptor on NIH3T3 mouse fibroblast cells); assay: cell-based or functional assay
[2] = system: mouse fibroblast cell line NIH/3T3; assay: Inhibition of growth factor activity of VHH homodimer by FGFR inhibitor (fibroblasts); format: cell-based; details: 20 nM
Description: Promotion of Fibroblast Growth by VHH (Homodimer)” described above.
It was examined whether the cell growth activities of bFGF and the single-domain antibody were inhibited by NPV-BGJ398 which is an FGFR kinase inhibitor.

[3] = system: NIH3T3 (mouse fibroblast cell line); assay: Inhibition of growth factor activity of VHH homodimer by FGFR antagonist; format: cell-based; details: 20 nM
Description: The cell growth assay for FGF2 was performed according to the following procedure. On Day 1, a suspension including 2.5×10^4 cells/mL of NIH3T3 in DMEM of 10% CS and PS(+) was created, seeded on a CulturPlate-96 (White Opaque 96-well Microplate, manufactured by Perkin Elmer, Cat #6005680) at 100 μL/well, and cultured in a 5% CO2 incubator at 37° C. for 16 to 24 hours. On Day 2, the medium was replaced with FGF2 (PeproTech Cat #AF-100-18B) or serum-free PS(+) DMEM including various test substances, and the cells were further cultured for 2 days. On Day 4, the 96-well plate was left at room temperature for 30 minutes, and then 100 μL of Cell Titer Glo 2.0 Reagent (manufactured by Promega Corporation) at room temperature was added to each well, followed by stirring at 500 rpm for 2 minutes using a plate mixer. The plate was further left to stand for 8 minutes, and then the luminescence in each well was measured with a Synergy HTX plate reader (manufactured by BioTek) with a sensitivity set (Gain) of 200 and a measurement time of 1 s/well.
The addition amounts of FGF2 and #1L4 (hereinafter also referred to as “#1-L4-#1”), which is a dimer of VHH #1 with a linker […], were each 10 or 100 ng/mL.

[4] = molecular target: T1, FGFR1-DII (FGFR1 extracellular domain, DII domain) (human, UniProt P11362 142-250); assay: BLI (Octet 384); VHH Clone #1 immobilised on an Anti-Penta-HIS sensor, FGFR1-DII in solution [A]
T1 construct: domain: DII; Expressed in AAVpro293T cells from a synthesised DNA fragment
T1 sequence (looked up): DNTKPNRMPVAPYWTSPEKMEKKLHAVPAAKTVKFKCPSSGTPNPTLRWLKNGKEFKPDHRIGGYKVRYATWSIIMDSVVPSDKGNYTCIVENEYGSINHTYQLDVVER
Description: (§1) In the preparation for measurement, a tip of the sensor chip was immersed in 200 μL of the kinetics buffer for 10 minutes in order to hydrate the sensor chip. Thereafter, 70 μL of each measurement solution was added to a 384-well black plate (manufactured by Fortebio), and measurement was performed in the following steps 1) to 6). [0291] 1) Baseline step: Baseline measurement (30 seconds) in a kinetics buffer, [0292] 2) Loading step: Immobilization of a VHH antibody on a sensor (120 seconds), [0293] 3) Baseline step: Baseline measurement (30 seconds) in a kinetics buffer, [0294] […] 5) Dissociation step: Measurement in a kinetics buffer (120 seconds), [0296] 6) Regeneration step: Measurement in Glycin-HCl (pH 2.2) for 5 seconds and measurement in a kinetics buffer for 5 seconds are repeated three times.
(§2) After completion of the measurements, the measured value of a Reference (only the kinetics buffer) was subtracted from the actual measurement value, and Global Fitting was performed using a 1:1 binding model using Octet software to calculate the binding activity (FIG. 22).

[5] = molecular target: T2, FGFR1-DIII (FGFR1 extracellular domain, DIII domain) (human, UniProt P11362 251-365); assay: BLI (Octet 384), VHH Clone #1 captured on Anti-Penta-HIS sensor, FGFR1 protein in solution from 100 nM in 2-fold dilutions, global 1:1 fit
T2 construct: domain: DIII; Expressed in AAVpro293T cells from a synthesised DNA fragment
T2 sequence (looked up): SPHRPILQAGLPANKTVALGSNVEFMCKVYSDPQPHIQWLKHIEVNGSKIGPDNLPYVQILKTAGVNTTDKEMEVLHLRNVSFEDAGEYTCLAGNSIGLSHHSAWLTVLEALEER
Description: as §1, §2

[6] = molecular target: T3, FGFR1-DIIDIII (FGFR1 extracellular domain, DII and DIII domains) (human, UniProt P11362 142-365); assay: as above
T3 construct: domain: DIIDIII; Expressed in AAVpro293T cells from a synthesised DNA fragment
T3 sequence (looked up): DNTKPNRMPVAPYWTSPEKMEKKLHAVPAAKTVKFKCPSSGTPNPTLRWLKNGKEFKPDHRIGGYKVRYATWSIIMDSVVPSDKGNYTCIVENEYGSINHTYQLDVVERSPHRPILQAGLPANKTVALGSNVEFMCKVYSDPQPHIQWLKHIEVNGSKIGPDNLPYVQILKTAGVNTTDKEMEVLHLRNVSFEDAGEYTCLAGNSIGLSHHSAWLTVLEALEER
Description: as §1, §2

FGFR2-Fc (human) = FGFR2-Fc (human) (UniProt P21802); assay: SPR (Biacore T200, same manner as Example 5, 1:1 model)
[7] = molecular target: FGF Receptor 1β (IIIc)/Fc Chimera Human Recombinant Carrier-free (R & D Systems Cat. no. 661-FR) (human) (UniProt P11362); assay: SPR (Biacore T200, CAP chip, biotinylated FGFR1-Fc captured, VHH injected at 1.85-50 nM, single-cycle kinetics, 1:1 model, 25 C)
FGFR4-Fc = molecular target: T4, FGFR4-Fc (human, UniProt P22455 22-369, limits assumed); assay: SPR (Biacore T200, same manner as Example 5, 1:1 model)
T4 construct: not shown: Fc part
T4 sequence (looked up): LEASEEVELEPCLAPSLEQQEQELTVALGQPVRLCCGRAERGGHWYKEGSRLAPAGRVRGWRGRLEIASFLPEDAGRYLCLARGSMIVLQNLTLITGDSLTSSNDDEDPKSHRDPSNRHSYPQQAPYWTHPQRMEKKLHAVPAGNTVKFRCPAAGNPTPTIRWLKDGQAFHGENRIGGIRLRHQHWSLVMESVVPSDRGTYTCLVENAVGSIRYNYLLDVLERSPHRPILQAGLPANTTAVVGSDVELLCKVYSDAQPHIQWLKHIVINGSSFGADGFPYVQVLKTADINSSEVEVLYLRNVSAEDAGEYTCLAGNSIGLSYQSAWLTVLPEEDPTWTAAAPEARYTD

FGFR3-Fc = molecular target: T5, FGFR3-Fc (human, UniProt P22607 23-375); assay: as above
T5 chain: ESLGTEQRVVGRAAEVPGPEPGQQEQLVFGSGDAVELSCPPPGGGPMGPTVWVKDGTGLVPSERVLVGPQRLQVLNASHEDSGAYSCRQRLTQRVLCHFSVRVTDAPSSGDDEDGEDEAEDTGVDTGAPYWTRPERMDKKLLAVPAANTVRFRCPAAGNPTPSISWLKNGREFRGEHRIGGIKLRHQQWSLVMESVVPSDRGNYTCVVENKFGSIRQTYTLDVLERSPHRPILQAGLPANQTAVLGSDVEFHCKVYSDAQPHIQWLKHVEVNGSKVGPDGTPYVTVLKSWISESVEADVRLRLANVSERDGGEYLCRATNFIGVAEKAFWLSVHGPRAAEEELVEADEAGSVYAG

binding result [4]: no binding | Kd [5]: 1.18 nM | koff [5]: 0.000351 s⁻¹ | kon [5]: 298000 M⁻¹ s⁻¹ | Kd [6]: 0.489 nM | koff [6]: 0.000141 s⁻¹ | kon [6]: 289000 M⁻¹ s⁻¹ | Kd (FGFR2-Fc (human)): 1630 nM | koff (FGFR2-Fc (human)): 0.776 s⁻¹ | kon (FGFR2-Fc (human)): 484000 M⁻¹ s⁻¹ | Kd [7]: 1.74 nM | Kd (FGFR4-Fc): 22.2 nM | koff (FGFR4-Fc): 0.0527 s⁻¹ | kon (FGFR4-Fc): 2.37e+06 M⁻¹ s⁻¹ | Kd (FGFR3-Fc): 1010 nM | koff (FGFR3-Fc): 0.235 s⁻¹ | kon (FGFR3-Fc): 232000 M⁻¹ s⁻¹
B1: VHH Clone #1 (VHH monomer Clone #1) (VHH)
VHH: QLQLVESGGGSVQAGGSLRLSCAASRSLSRFNVWTWYRQAPVKQRELVASITKSGDTNYAESVKGRFIISRDDDKNTVYLQMNNLKSEDTGIYYCAGSYYSGSYLYPSPGGFSVWGQGTQVTVSS
notes: also called VHH #1; FGFR #1; not shown: C-terminal His tag (purified on Ni Sepharose, captured on Anti-Penta-HIS sensor)

Kd [7]: 1.02 nM | koff [7]: 0.00114 s⁻¹ | kon [7]: 1.11e+06 M⁻¹ s⁻¹
B2: VHH Clone #2 (VHH monomer Clone #2) (VHH, not shown: small tags and cut ends)
VHH: QVQLVESGGGLVQAGGSLRLSCAVPGSIFRFNTMGWYRQPPGKQRELVAQMSRGGITKYGDSVKGRFTITRDNAKNTVHLQMNSLKPEDTAVYYCAGSYYSGSYYYPSPQGFSVWGQGTQVTVSP

More lines, now with the values behind:

Molecule: basic FGF (PeproTech, AF-100-18B) (from UniProt P09038 135-288) (ligand)
EC50 of the growth of cultured fibroblasts (NIH/3T3, Cell Titer Glo luminescence) [1]: 5.1 nM

Molecule: CCN1CCN(c2ccc(Nc3cc(N(C)C(=O)Nc4c(Cl)c(OC)cc(OC)c4Cl)ncn3)cc2)CC1 [NVP-BGJ398]
effect of NVP-BGJ398 itself on cell growth [2]: little effect on cell growth | effect of NVP-BGJ398 itself on cell growth [3]: little effect on cell growth

From patent US20240279618A1, “RECEPTOR TYROSINE KINASE AGONIST, COMPOSITION FOR CELL CULTURE MEDIUM, AND […] MAINTENANCE COMPOSITION” (SEKISUI CHEMICAL CO., LTD., priority 2021, published 2024)
